Reference: US20210238304A1
Values joined by “and” are separate entries in the source; they are usually repeats but may differ in a detail not shown here. Equal values may be shown once. Blank lines part the entries; values can stand above or below the binder they belong to.

Columns and labels:
[1] = biological target: human mesothelin (recombinant, soluble) (human) (UniProt Q13421); assay: SPR BIAcore, parental mAb captured, mesothelin analyte
[2] = biological target: human mesothelin (recombinant, soluble) (human) (UniProt Q13421); assay: SPR BIAcore, captured mAb, mesothelin analyte

human mesothelin (recombinant, soluble) (human), sequence (Q13421 other isoform, or with tags, fused parts or gaps limits assumed): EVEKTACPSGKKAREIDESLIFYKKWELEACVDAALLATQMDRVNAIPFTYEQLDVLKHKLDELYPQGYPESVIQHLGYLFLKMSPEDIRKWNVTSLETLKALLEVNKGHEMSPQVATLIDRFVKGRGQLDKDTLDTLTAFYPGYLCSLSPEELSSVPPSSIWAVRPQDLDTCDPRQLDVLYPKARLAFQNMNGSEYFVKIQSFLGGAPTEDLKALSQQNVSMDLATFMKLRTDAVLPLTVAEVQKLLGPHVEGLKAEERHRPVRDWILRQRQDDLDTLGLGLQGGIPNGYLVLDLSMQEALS

- Kd [1]: 3.4 nM
- koff [1]: 0.00065 s⁻¹
- kon [1]: 220000 M⁻¹ s⁻¹
B1: 33O11 zu (humanized anti-human mesothelin antibody) (antibody, from another filing, V domains shown)
VH: EVQLVESGGGLVQPGGSLRLSCAASGISLSSDAISWVRQAPGKGLEYIGIINGGGNTYYASWAKGRFTISRHNSKNTLYLQMNSLRAEDTAVYYCARGIQHGGGNSDYYYYGMDLWGQGTLVTVSS
VL: DIQMTQSPSSLSASVGDRVTITCQASQSISSVLSWYQQKPGKAPKLLIYLASTLASGVPSRFSGSGSGTDFTLTISSLQCEDIATYYCQTNYGTSSSNYGFAFGGGTKVEIKR

- Kd [2]: 0.706 nM and 0.529 nM
- koff [2]: 0.000481 s⁻¹ and 0.000609 s⁻¹
- kon [2]: 682000 M⁻¹ s⁻¹ and 1.15e+06 M⁻¹ s⁻¹
- Kd [1]: 1.4 nM
- koff [1]: 0.00049 s⁻¹
- kon [1]: 380000 M⁻¹ s⁻¹
B2: 346C6 (rabbit-human chimeric anti-human mesothelin antibody) (antibody, from another filing, V domains shown)
VH: QSVEESGGRLVKPDESLTLTCTASGFSLSSYAMIWVRQAPGEGLEWIGTISTGGITYYASWAKGRFTISKTSTTVDLKITSPTTEDTATYFCARGGYAASSAYYLPYYFDLWGQGTLVTVSS
VL: AAVLTQTPSPVSAAVGGTVTISCQSSQSVYNNNNLAWFQQKPGQPPKLLIYLASTLASGVPSRFSGSGSGTQFTLTISGVQCDDAATYYCLGGCDDDADTFAFGGGTEVVVKR

- Kd [1]: 6.3 nM
- koff [1]: 0.0039 s⁻¹
- kon [1]: 650000 M⁻¹ s⁻¹
B3: 111B10 (rabbit-human chimeric anti-human mesothelin antibody) (antibody, from another filing, V domains shown)
VH: QSVEESGGRLVTPGTPLTLTCTVSGFSLNNYAMSWVRQAPGKGLEWIGSISTGGLAFYANWAKGRFTISRTSTTVDLKMTSLTTEDTATYFCGRNGGGSYIFYYFDLWGQGTLVTVSS
VL: AFELTQTPSSVEAAVGGTITIKCQASQSISSYLSWYQQKPGQPPKLLIYSASTLASGVSSRFKGSGSGTEYTLTISDLECADAATYFCQSYYDIGTSTFGGGTEVVVKR

- Kd [2]: 0.47 nM and 0.131 nM
- koff [2]: 0.000129 s⁻¹ and 0.000345 s⁻¹
- Kd [1]: 1.1 nM
- koff [1]: 0.00026 s⁻¹
- kon [1]: 240000 M⁻¹ s⁻¹
B4: 201C15 (rabbit-human chimeric anti-human mesothelin antibody) (antibody, from another filing, V domains shown)
VH: QSVKESGGRLVTPGTPLTLTCTVSGIDLSSYAMGWFRQAPGKGLEYIGTINIGGRVYYASWAKGRFTISRTSTTVDLKAPSLTAEDTATYFCARYYNGGSYDIWGPGTLVTVSL
VL: DVVMTQTPASASEPVGGTVTIKCQASESIYRVLAWYQQKPGQPPKLLIYDTSTLASGAPSRFKGSGYGTEFTLTISGVQCEDAATYYCQGGYYADSYGIAFGGGTEVVVKR
